{
  "source": "the nanobody polyreactivity screen of Harvey et al. (2022)",
  "data": [
    {"assay": "yeast display, Sf9 membrane polyspecificity reagent, FACS + sequencing; frameworks hold sequencing errors", "in_short": "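Polyreactivity labels are assigned by the sorting gate from which each nanobody was recovered. The gates were low and high (top ~1%), set on anti-HA fluorescence for expression and streptavidin fluorescence for reagent binding. Before sorting, galactose-induced (36–48 hours) yeast display cells were stained for 1 hour at 4 °C with 10% biotinylated, detergent-solubilized Sf9 membrane reagent.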", "values": [
      {"sequence": "QVQLVESGGGLVQAGGSLRLSCAASGRIFGRYVMGWYRQAPGKERELVARIRRNGGSTYYADSVKGRFTISRDNAKNTVYLQMNSLKPDDTAVYDCAAESYDTWRRYESWGQGTQVTVSS", "polyreactivity (PSR sort gate)": "high polyreactivity"},
      {"sequence": "QVQLVESGGGLVQAGGSLRLSCAASGRIFGSYALGWYRQAPGKERELVAAISSGGSTSYADSVKGRFTISRDNAKNTVYLQMNSLKPEDTAVDYCNRLRLFRGRGDYWGQGTQVTVSS", "polyreactivity (PSR sort gate)": "high polyreactivity"},
      {"sequence": "QVQLVESGGGLVQAGGSLRLSCAASGRIFGSYAMGWYRQAPGKERELVAVITKRGDSTYYADSVKGRFTISRDNAKNTVYLQMNSLKPEDTAVYYCNAGRVYYSNGYDYWGQGSQVTVSS", "polyreactivity (PSR sort gate)": "low polyreactivity"},
      {"sequence": "QVQLVESGGGLVQAGGSLRLSCAASGRIFGSYTMGWYRQAPGKERELVAGISRRGGSTYYADSVKGRFTISRDNAKNTVYLQMNGLKPEDTAVYYCAAVSSVFSVRYDYWGQGTQVTVSS", "polyreactivity (PSR sort gate)": "high polyreactivity"},
      {"sequence": "QVQLVESGGGLVQAGGSLRLSCAASGRIFGSYVMGWYRQAPGKERELVAAISYSGGRTYYADSVKGRFTISRDNAKNTVYLQMNSLKPEDTAVYYCAKESSGSRYQYYYWGQGTQVTVSS", "polyreactivity (PSR sort gate)": "high polyreactivity"},
      {"sequence": "QVQLVESGGGLVQAGGSLRLSCAASGRIFGTNAMGWYRQAPGKERELVADITSGGSTNYADSVKGRFTISRDNAKNTVYLQMNSLKPEDTAVYDCAADVIGDLRWYRDEYWGQGTQVTVSS", "polyreactivity (PSR sort gate)": "low polyreactivity"},
      {"sequence": "QVQLVESGGGLVQAGGSLRLSCAASGRIFGTNARGWYRQAPGKERELVADITSGGSTNYADSVKGRFTISRDNAKNTVYLQMNSLKPEDTAVYYCAADVIGDLRWYRDEYWGQGTQVTVSS", "polyreactivity (PSR sort gate)": "low polyreactivity"},
      {"sequence": "QVQLVESGGGLVQAGGSLRLSCAASGRIFGVNAMGWYRPSPGKERELVADISSGGSTNYADSVKGRFTISRDNAKNTVYLQMNSLKPEDTAVYYCNARFRFRYKFPSRNSWGQGTQVTVSS", "polyreactivity (PSR sort gate)": "high polyreactivity"},
      {"sequence": "QVQLVESGGGLVQAGGSLRLSCAASGRIFGVNAMGWYRQAPGKERELVAAITRRGGSTYADSVKGRFTISRDNAKNTVYLQMNSLKPEDTAVYYCNAESYYGIFRYKYDYWGQGTQVTVSS", "polyreactivity (PSR sort gate)": "high polyreactivity"},
      {"sequence": "QVQLVESGGGLVQAGGSLRLSCAASGRIFGVYAMGWSRQAPGKERELVAAITARGGSTYYADSVKGRFTISRDNAKNTVYLQMNSLKPEDTAVYYCNAARSTSRPYDYWGQGTQVTVSS", "polyreactivity (PSR sort gate)": "high polyreactivity"},
      {"sequence": "QVQLVESGGGLVQAGGSLRLSCAASGRIFGVYAMGWYRPAPGKERELVAGINGGDSTYYADSVKGRFTISRDNAKNTVYLQMNSLKPEDTAVYYCAAEADESGSNYDYWGQGTQVTVSS", "polyreactivity (PSR sort gate)": "low polyreactivity"},
      {"sequence": "QVQLVESGGGLVQAGGSLRLSCAASGRIFGVYAMGWYRQAPGKDRELVAAITSSGGRTYYADSVKGRFTISRDNAKNTVYLQMNSLKPEDTGVYYCAALGWSRRGKFNYWGQGTQVTVSS", "polyreactivity (PSR sort gate)": "high polyreactivity"},
      {"sequence": "QVQLVESGGGLVQAGGSLRLSCAASGRIFGVYAMGWYRQAPGKERELVAAISRGGSTKYADSVKGRFTISRDNAKNTVYLQMNSLKPEDTAVYYCAARRWGRVYTTYTGGYWGQGTQVTVSS", "polyreactivity (PSR sort gate)": "high polyreactivity"},
      {"sequence": "QVQLVESGGGLVQAGGSLRLSCAASGRIFGVYAMGWYRQAPGKERELVAAITFNAGSTYYADSVKGRFTISRDNAKNTVYLQMNSLIPEDTAVYYCNAYTESWYPIYFFGWSYTDVDYWGQGTQVTVSS", "polyreactivity (PSR sort gate)": "low polyreactivity"},
      {"sequence": "QVQLVESGGGLVQAGGSLRLSCAASGRIFGWYTMGWYRQAPGKERELVAVISSGGSTNYADSVKGRFTISRDNAKNTVYLQMNSLKPEDTAVYYCAAGGQGGDFGDDYWGQGTQVTVSS", "polyreactivity (PSR sort gate)": "high polyreactivity"},
      {"sequence": "QVQLVESGGGLVQAGGSLRLSCAASGRIFGYNAMGWYREAPGKERELVAAITGSGGSTYYADSVKGRFTISRDNAKNTVYLQMNSLKPEDTAVYYFATAYAVYHVEYGYWGQGTQVTVSS", "polyreactivity (PSR sort gate)": "low polyreactivity"},
      {"sequence": "QVQLVESGGGLVQAGGSLRLSCAASGRIFGYNAMGWYRPAPGKEREVVAAISWNGGSTYYADSVKGRFTISRDNAKNTVYLQMNSLKPEDTAVYYCNADPSDRRYPHTWTKMGYWGQGTQVTVSS", "polyreactivity (PSR sort gate)": "low polyreactivity"},
      {"sequence": "QVQLVESGGGLVQAGGSLRLSCAASGRIFGYNAMGWYRQAPGKERELVAAITNGGSTNYADSVKGRFTISRDNAKNTVYLQMNSLKPEDTAVYYCVAYVGSTYSAPEYYWGQGTQVTVSS", "polyreactivity (PSR sort gate)": "low polyreactivity"},
      {"sequence": "QVQLVESGGGLVQAGGSLRLSCAASGRIFGYNDMGLYRQAPGKERELVAAINWTGGSTYYADSVKGRFTISRDNAKNTVYLQMNSLKPEDTAVYYCNADARTKWVQTHTDFITDYDYWGQGTQVTVSS", "polyreactivity (PSR sort gate)": "low polyreactivity"},
      {"sequence": "QVQLVESGGGLVQAGGSLRLSCAASGRIFGYNGMGWYRQAPGKERELVAAITSGGRTYYADSVKGRFTISRDNAKNTVYLQMNSLKPEDTAVYYCAAYFYQRGYGYVGPYGYWGQGTQVTVSS", "polyreactivity (PSR sort gate)": "high polyreactivity"},
      {"sequence": "QVQLVESGGGLVQAGGSLRLSCAASGRIFGYNVMGWYRQAPGKERELVAAISYSGGSTYYADSVKGRFTISRDNAKNTVYLQMNSLKPEDTAVYYCNAGYRGSSKYNYWGQGTQVTVSS", "polyreactivity (PSR sort gate)": "high polyreactivity"},
      {"sequence": "QVQLVESGGGLVQAGGSLRLSCAASGRIFGYTMGWYRQAPGKERELVAAISKSGGSTYYADSVKGRFTISRDNAMNTVYLQMNSLKPEDTAVYYCNKPQRILYDYWGQGTQVTVSS", "polyreactivity (PSR sort gate)": "high polyreactivity"},
      {"sequence": "QVQLVESGGGLVQAGGSLRLSCAASGRIFGYYAMGWSRQAPGKEREFVAAINWRGSSTTYADSVKGRFTISRDNAKNTVYLQMNSLKPEDTAVYYCKRVFGGGQWVYGYWGQGTQVTVSS", "polyreactivity (PSR sort gate)": "high polyreactivity"},
      {"sequence": "QVQLVESGGGLVQAGGSLRLSCAASGRIFGYYAMGWYRQAPGKERELVAAIRWSSGRTYYADSVKGRFTISRDNAKNTVYLQMNSLKPEDTAVYYCAKDGGLRKFDYWGQGTQVTVSS", "polyreactivity (PSR sort gate)": "high polyreactivity"},
      {"sequence": "QVQLVESGGGLVQAGGSLRLSCAASGRIFGYYAMGWYRQAPGKERELVAAISRSGSSTYYADSVKGRFTISRDNAKNTVYLQMNSLKPEDTAVYYCNSEKYYRAYLLPFNYWGQGTQVTVSS", "polyreactivity (PSR sort gate)": "high polyreactivity"},
      {"sequence": "QVQLVESGGGLVQAGGSLRLSCAASGRIFGYYAMGWYRQAPGKERELVAAISYSGGRTYYADSVKGRFTISRDNAKNTVYLQMNSLKPEDTAVYYCNARSRSYKWYTRTGYGYDYWGQGTQVTVSS", "polyreactivity (PSR sort gate)": "high polyreactivity"},
      {"sequence": "QVQLVESGGGLVQAGGSLRLSCAASGRIFGYYAMGWYRQAPGKERELVAAISYSGGSTYYADSVKGRFTISRDNAKYTVFLQMNSLKPEDTAVYYCNKVYSIRGYWGQGTQVTVSS", "polyreactivity (PSR sort gate)": "high polyreactivity"},
      {"sequence": "QVQLVESGGGLVQAGGSLRLSCAASGRIFGYYAMGWYRQAPGKERELVAAITRGGSTNYADSVKGRFTISRDNAKNTVYLQMNSLKPEDTAVYYCNARRYRPGSASYDYWGQGTQVTVSS", "polyreactivity (PSR sort gate)": "high polyreactivity"},
      {"sequence": "QVQLVESGGGLVQAGGSLRLSCAASGRIFGYYAMGWYRQAPGKERELVAAITSGGRTYYADSVKGRFTISRDNAKNTVFLQMNSLKPEDTAVNYCAAVRALRKVRDYYYWGQGTQVTVSS", "polyreactivity (PSR sort gate)": "high polyreactivity"},
      {"sequence": "QVQLVESGGGLVQAGGSLRLSCAASGRIFGYYAMGWYRQAPGKERELVATITFGGGSTYYADSVKGRFTISRDNAKNTVYLQMNSLIPEDSAVYYCAADSGYLGIYGDEYSWGQGTQVTVSS", "polyreactivity (PSR sort gate)": "low polyreactivity"},
      {"sequence": "QVQLVESGGGLVQAGGSLRLSCAASGRIFGYYAMVCYRQAPGKERELVAAISSGGGSTYYADSVKGRFTISRDNAKNTVYLQMNSLKPEDTAVYYCIVAYRWSTRYDYWGQGTQVTVSS", "polyreactivity (PSR sort gate)": "high polyreactivity"},
      {"sequence": "QVQLVESGGGLVQAGGSLRLSCAASGRIFGYYVMGWYRQAPGKERELVAAIRSSADSTYYADSVKGRFTISRDNAKNTVYFQMNSLKPEDTAVYYCAAQSPAYYTKSYWGQGTQVTVSS", "polyreactivity (PSR sort gate)": "low polyreactivity"},
      {"sequence": "QVQLVESGGGLVQAGGSLRLSCAASGRIFHGNAMGWYRQAPGKERELVARISSSGGGTYYADSVKGRFTISRDNAKNTVYLQMNSLKPEDTAVYYCAARRPDHTEVSNLRYDSWGQGTQVTVSS", "polyreactivity (PSR sort gate)": "low polyreactivity"},
      {"sequence": "QVQLVESGGGLVQAGGSLRLSCAASGRIFHGYAMGWYRQAPGKDRELVAVIRSGVNTNYADSVKGRFTISRDNAKNTVYLQMNSLKPADTAVYYCAVDYTPEDWGDDYWGQGTHVTVSS", "polyreactivity (PSR sort gate)": "low polyreactivity"},
      {"sequence": "QVQLVESGGGLVQAGGSLRLSCAASGRIFHHNAMVSYRQAPGKEMELVATITWSGGRTYYADSVKGRFTISRDNAKNTVYLQMNSLKPEDTAVYYCAASSYSYYGYRSYQSTYYYWGQGTQVTVSS", "polyreactivity (PSR sort gate)": "low polyreactivity"},
      {"sequence": "QVQLVESGGGLVQAGGSLRLSCAASGRIFHHNVMGWYRPAPGKERELVAAISQSGGSTYYADSVKGRFTISRDNAKYTVYVQMNSLKPEDTAVYYCNAGAAGRRYNYWGQGTQVTVSS", "polyreactivity (PSR sort gate)": "low polyreactivity"},
      {"sequence": "QVQLVESGGGLVQAGGSLRLSCAASGRIFHIYAMGWYRQAPGKERELVAAIRSSGGSTYYADSVKGRFTISRDNAKNTVYLQMNSLKPEDTAVYYCAVDYGNPVYWDEMYYWGQGTQVTVSS", "polyreactivity (PSR sort gate)": "low polyreactivity"},
      {"sequence": "QVQLVESGGGLVQAGGSLRLSCAASGRIFHRYAMGWYRQAPGKEREFVAAISSRGGSTYYADSLKGRFTISRDTAKNTVDFQINSLKPEETAVYYCAAQIGYRSGEFYYWGQGTQVTVSS", "polyreactivity (PSR sort gate)": "high polyreactivity"},
      {"sequence": "QVQLVESGGGLVQAGGSLRLSCAASGRIFHTYAMGWYIQAPGKERELVAAISRSGGSTYYADSVKGRFTISRDNAKNTVYLQMNSLKPEDTAVYYCAADIRGPYGNRYKFYYWGQGTQVTVSS", "polyreactivity (PSR sort gate)": "high polyreactivity"},
      {"sequence": "QVQLVESGGGLVQAGGSLRLSCAASGRIFHYAMGWYRQAPGKERELVAGISKRGGSTYYADSVKGRFTISRDNAKNTVYLQMNSLKPEDTAVYYCAAGRAYDGTKHDYWGQGSQVTVSS", "polyreactivity (PSR sort gate)": "high polyreactivity"},
      {"sequence": "QVQLVESGGGLVQAGGSLRLSCAASGRIFHYNAMGWYRQAPGKERELVAAISTGGSTNYADSVKGRFTISRDNAKNTFYLQMYSLKPEDTAVYYCAADHPVTYPTSKFDFWGQGTQVTVSS", "polyreactivity (PSR sort gate)": "low polyreactivity"},
      {"sequence": "QVQLVESGGGLVQAGGSLRLSCAASGRIFHYYAMGWYRQAPGKERELVAAISWSGGSTYYADSVKGRFTISRDNAKNTVYLQMNSLKPEETAVYYCAARYVKTKGSFVVGYGYWGQGTQVTLSS", "polyreactivity (PSR sort gate)": "high polyreactivity"},
      {"sequence": "QVQLVESGGGLVQAGGSLRLSCAASGRIFIANTMGWYRQAPGKERELVAAITQRGDSTYYADSVKGRFTISRDNAKNTVYLQMNSLKPVDTAVYYCAARSFRKYYIRYDYWGQGTQVTVSS", "polyreactivity (PSR sort gate)": "high polyreactivity"}
    ]}
  ]
}
